Results published in publication PMC9396027, “Comparative transcriptome analysis of MDBK cells reveals that BoIFN-γ augmented host immune responses to bovine herpesvirus 1 infection” (Frontiers in Microbiology, 2022).

Target: the molecule itself
Assay: SEC; Superdex 200 size exclusion column, refolded BoIFN-γ; peak mass compared with the monomer mass (14.2 kDa)

B1: Bovine interferon gamma (BoIFN-γ) (ligand, UniProt P07353 24-166, looked up)
chain: QGQFFREIENLKEYFNASSPDVAKGGPLFSEILKNWKDESDKKIIQSQIVSFYFKLFENLKDNQVIQRSMDIIKQDMFQKFLNGSSEKLEDFKKLIQIPVDDLQIQRKAINELIKVMNDLSPKSNLRKRKRSQNLFRGRRASM
notes: Bovine interferon gamma; synthesised gene encoding 122 amino acids, according to GenBank EU276066, nucleotides 24-390; monomer 14.2 kDa; Cloned into pET-21a(+); 122 amino acids is shorter than the mature protein as I recall it, so the construct is probably truncated; also called Bovine IFN-γ; bovine interferon gamma dimer protein
stoichiometry N: 2
